Marks after values point to notes of the source that are not given here.
Columns and labels:
[1] = EGCg concentration: radio-TLC purity; type: physicochemical; details: 25 μCi/ml, 100 mM sodium ascorbate pH 5.80, 0.05 mg/ml DTPA, saline, 25° C.
Description: (§1) The mixture was kept at room temperature (25° C.). At different time points, radioactive components of the formulated dose were measured by radio-TLC as described in the table below: […]

[2] = Dextran ratio optimization: radio-TLC purity; type: physicochemical; details: 25 μCi/ml
Description: as §1

(2,2′,2″-(10-(2-4(R)-1-(((4R,7S,10S,13R,16S,19R)-13-((1H-indol-3-yl)methyl)-10-(4-aminobutyl)-4-(((1S,2R)-1-carboxy-2-hydroxypropyl)carbamoyl)-16-(4-hydroxybenzyl)-7-((R)-1-hydroxyethyl)-6,9,12,15,18-pentaoxo-1,2-dithia-5,8,11,14,17-pentaazacycloicosan-19-yl)amino)-1-oxo-3-phenylpropan-2-yl)amino)-2-oxoethyl)-1,4,7,10-tetraazacyclododecane-1,4,7-triyl)triacetate; actinium-225(3+)) [[^225Ac]Ac-DOTA-TATE]
Percentage of ^225Ac present in [^225Ac]Ac-DOTA-TATE ([1]; EGCg 0 mg/ml, 0 hour): 99.90%
Percentage of ^225Ac present in [^225Ac]Ac-DOTA-TATE ([1]; EGCg 0 mg/ml, 24 hours): 99.42%
Percentage of ^225Ac present in [^225Ac]Ac-DOTA-TATE ([1]; EGCg 0 mg/ml, 48 hours): 98.73%
Percentage of ^225Ac present in [^225Ac]Ac-DOTA-TATE ([1]; EGCg 0 mg/ml, 72 hours): 97.77%
Percentage of ^225Ac present in [^225Ac]Ac-DOTA-TATE ([1]; EGCg 0 mg/ml, 96 hours): 97.13%
Percentage of ^225Ac present in [^225Ac]Ac-DOTA-TATE ([1]; EGCg 0 mg/ml, 120 hours, non-homogeneous sampling): 98.09* %
Percentage of ^225Ac present in [^225Ac]Ac-DOTA-TATE ([1]; EGCg 0 mg/ml, 144 hours): 94.64%
Percentage of ^225Ac present in [^225Ac]Ac-DOTA-TATE ([1]; EGCg 0.5 mg/ml, 0 hour): 99.61%
Percentage of ^225Ac present in [^225Ac]Ac-DOTA-TATE ([1]; EGCg 0.5 mg/ml, 24 hours): 98.92%
Percentage of ^225Ac present in [^225Ac]Ac-DOTA-TATE ([1]; EGCg 0.5 mg/ml, 48 hours): 98.48%
Percentage of ^225Ac present in [^225Ac]Ac-DOTA-TATE ([1]; EGCg 0.5 mg/ml, 72 hours): 97.97%
Percentage of ^225Ac present in [^225Ac]Ac-DOTA-TATE ([1]; EGCg 0.5 mg/ml, 96 hours): 96.44%
Percentage of ^225Ac present in [^225Ac]Ac-DOTA-TATE ([1]; EGCg 0.5 mg/ml, 120 hours): 95.65%
Percentage of ^225Ac present in [^225Ac]Ac-DOTA-TATE ([1]; EGCg 0.5 mg/ml, 144 hours): 93.04%
Percentage of ^225Ac present in [^225Ac]Ac-DOTA-TATE ([1]; EGCg 1 mg/ml, 0 hour): 99.76%
Percentage of ^225Ac present in [^225Ac]Ac-DOTA-TATE ([1]; EGCg 1 mg/ml, 24 hours): 99.14%
Percentage of ^225Ac present in [^225Ac]Ac-DOTA-TATE ([1]; EGCg 1 mg/ml, 48 hours): 98.83%
Percentage of ^225Ac present in [^225Ac]Ac-DOTA-TATE ([1]; EGCg 1 mg/ml, 72 hours): 98.04%
Percentage of ^225Ac present in [^225Ac]Ac-DOTA-TATE ([1]; EGCg 1 mg/ml, 96 hours): 97.15%
Percentage of ^225Ac present in [^225Ac]Ac-DOTA-TATE ([1]; EGCg 1 mg/ml, 120 hours): 94.82%
Percentage of ^225Ac present in [^225Ac]Ac-DOTA-TATE ([1]; EGCg 1 mg/ml, 144 hours): 95.65%
Percentage of ^225Ac present in [^225Ac]Ac-DOTA-TATE ([1]; EGCg 3 mg/ml, 0 hour): 99.81%
Percentage of ^225Ac present in [^225Ac]Ac-DOTA-TATE ([1]; EGCg 3 mg/ml, 24 hours): 98.57%
Percentage of ^225Ac present in [^225Ac]Ac-DOTA-TATE ([1]; EGCg 3 mg/ml, 48 hours): 98.00%
Percentage of ^225Ac present in [^225Ac]Ac-DOTA-TATE ([1]; EGCg 3 mg/ml, 72 hours): 96.55%
Percentage of ^225Ac present in [^225Ac]Ac-DOTA-TATE ([1]; EGCg 3 mg/ml, 96 hours): 96.42%
Percentage of ^225Ac present in [^225Ac]Ac-DOTA-TATE ([1]; EGCg 3 mg/ml, 120 hours): 96.05%
Percentage of ^225Ac present in [^225Ac]Ac-DOTA-TATE ([1]; EGCg 3 mg/ml, 144 hours): 90.71%
Percentage of ^225Ac present in [^225Ac]Ac-DOTA-TATE ([2]; Dextran 0% w/w, 0 hour, 100 mM sodium ascorbate, 0.05 mg/ml DTPA, saline, pH 5.80, 25° C.): 99.90%
Percentage of ^225Ac present in [^225Ac]Ac-DOTA-TATE ([2]; Dextran 0% w/w, 24 hours, 100 mM sodium ascorbate, 0.05 mg/ml DTPA, saline, pH 5.80, 25° C.): 99.42%
Percentage of ^225Ac present in [^225Ac]Ac-DOTA-TATE ([2]; Dextran 0% w/w, 48 hours, 100 mM sodium ascorbate, 0.05 mg/ml DTPA, saline, pH 5.80, 25° C.): 98.73%
Percentage of ^225Ac present in [^225Ac]Ac-DOTA-TATE ([2]; Dextran 0% w/w, 72 hours, 100 mM sodium ascorbate, 0.05 mg/ml DTPA, saline, pH 5.80, 25° C.): 97.77%
Percentage of ^225Ac present in [^225Ac]Ac-DOTA-TATE ([2]; Dextran 0% w/w, 96 hours, 100 mM sodium ascorbate, 0.05 mg/ml DTPA, saline, pH 5.80, 25° C.): 97.13%
Percentage of ^225Ac present in [^225Ac]Ac-DOTA-TATE ([2]; Dextran 0% w/w, 120 hours, non-homogeneous sampling, 100 mM sodium ascorbate, 0.05 mg/ml DTPA, saline, pH 5.80, 25° C.): 98.09* %
Percentage of ^225Ac present in [^225Ac]Ac-DOTA-TATE ([2]; Dextran 0% w/w, 144 hours, 100 mM sodium ascorbate, 0.05 mg/ml DTPA, saline, pH 5.80, 25° C.): 94.64%
Percentage of ^225Ac present in [^225Ac]Ac-DOTA-TATE ([2]; Dextran 3% w/w, 0 hour, 100 mM sodium ascorbate, 0.05 mg/ml DTPA, saline, pH 5.80, 25° C.): 99.86%
Percentage of ^225Ac present in [^225Ac]Ac-DOTA-TATE ([2]; Dextran 3% w/w, 24 hours, 100 mM sodium ascorbate, 0.05 mg/ml DTPA, saline, pH 5.80, 25° C.): 98.62%
Percentage of ^225Ac present in [^225Ac]Ac-DOTA-TATE ([2]; Dextran 3% w/w, 48 hours, 100 mM sodium ascorbate, 0.05 mg/ml DTPA, saline, pH 5.80, 25° C.): 98.48%
Percentage of ^225Ac present in [^225Ac]Ac-DOTA-TATE ([2]; Dextran 3% w/w, 72 hours, 100 mM sodium ascorbate, 0.05 mg/ml DTPA, saline, pH 5.80, 25° C.): 97.91%
Percentage of ^225Ac present in [^225Ac]Ac-DOTA-TATE ([2]; Dextran 3% w/w, 96 hours, 100 mM sodium ascorbate, 0.05 mg/ml DTPA, saline, pH 5.80, 25° C.): 96.48%
Percentage of ^225Ac present in [^225Ac]Ac-DOTA-TATE ([2]; Dextran 3% w/w, 120 hours, 100 mM sodium ascorbate, 0.05 mg/ml DTPA, saline, pH 5.80, 25° C.): 96.67%
Percentage of ^225Ac present in [^225Ac]Ac-DOTA-TATE ([2]; Dextran 3% w/w, 144 hours, 100 mM sodium ascorbate, 0.05 mg/ml DTPA, saline, pH 5.80, 25° C.): 95.77%
Percentage of ^225Ac present in [^225Ac]Ac-DOTA-TATE ([2]; Dextran 6% w/w, 0 hour, 100 mM sodium ascorbate, 0.05 mg/ml DTPA, saline, pH 5.80, 25° C.): 100%
Percentage of ^225Ac present in [^225Ac]Ac-DOTA-TATE ([2]; Dextran 6% w/w, 24 hours, 100 mM sodium ascorbate, 0.05 mg/ml DTPA, saline, pH 5.80, 25° C.): 99.08%
Percentage of ^225Ac present in [^225Ac]Ac-DOTA-TATE ([2]; Dextran 6% w/w, 48 hours, 100 mM sodium ascorbate, 0.05 mg/ml DTPA, saline, pH 5.80, 25° C.): 98.83%
Percentage of ^225Ac present in [^225Ac]Ac-DOTA-TATE ([2]; Dextran 6% w/w, 72 hours, 100 mM sodium ascorbate, 0.05 mg/ml DTPA, saline, pH 5.80, 25° C.): 98.29%
Percentage of ^225Ac present in [^225Ac]Ac-DOTA-TATE ([2]; Dextran 6% w/w, 96 hours, 100 mM sodium ascorbate, 0.05 mg/ml DTPA, saline, pH 5.80, 25° C.): 96.99%
Percentage of ^225Ac present in [^225Ac]Ac-DOTA-TATE ([2]; Dextran 6% w/w, 120 hours, 100 mM sodium ascorbate, 0.05 mg/ml DTPA, saline, pH 5.80, 25° C.): 97.00%
Percentage of ^225Ac present in [^225Ac]Ac-DOTA-TATE ([2]; Dextran 6% w/w, 144 hours, 100 mM sodium ascorbate, 0.05 mg/ml DTPA, saline, pH 5.80, 25° C.): 96.41%
Percentage of ^225Ac present in [^225Ac]Ac-DOTA-TATE ([2]; Dextran 10% w/w, no L-ascorbate, 0 hour, 25° C.): 100%
Percentage of ^225Ac present in [^225Ac]Ac-DOTA-TATE ([2]; Dextran 10% w/w, no L-ascorbate, 24 hours, 25° C.): 95.38%
Percentage of ^225Ac present in [^225Ac]Ac-DOTA-TATE ([2]; Dextran 10% w/w, no L-ascorbate, 48 hours, 25° C.): 93.36%
Percentage of ^225Ac present in [^225Ac]Ac-DOTA-TATE ([2]; Dextran 10% w/w, no L-ascorbate, 72 hours, 25° C.): 89.11%
Percentage of ^225Ac present in [^225Ac]Ac-DOTA-TATE ([2]; Dextran 10% w/w, no L-ascorbate, 96 hours, 25° C.): 87.20%
Percentage of ^225Ac present in [^225Ac]Ac-DOTA-TATE ([2]; Dextran 10% w/w, 0 hour, 100 mM sodium ascorbate, 0.05 mg/ml DTPA, saline, pH 5.80, 25° C.): 99.67%
Percentage of ^225Ac present in [^225Ac]Ac-DOTA-TATE ([2]; Dextran 10% w/w, 24 hours, 100 mM sodium ascorbate, 0.05 mg/ml DTPA, saline, pH 5.80, 25° C.): 99.02%
Percentage of ^225Ac present in [^225Ac]Ac-DOTA-TATE ([2]; Dextran 10% w/w, 48 hours, 100 mM sodium ascorbate, 0.05 mg/ml DTPA, saline, pH 5.80, 25° C.): 98.75%
Percentage of ^225Ac present in [^225Ac]Ac-DOTA-TATE ([2]; Dextran 10% w/w, 72 hours, 100 mM sodium ascorbate, 0.05 mg/ml DTPA, saline, pH 5.80, 25° C.): 97.83%
Percentage of ^225Ac present in [^225Ac]Ac-DOTA-TATE ([2]; Dextran 10% w/w, 96 hours, 100 mM sodium ascorbate, 0.05 mg/ml DTPA, saline, pH 5.80, 25° C.): 96.42%

From US11819556B2, “Stabilized compositions of radionuclides and uses thereof” (RayzeBio, Inc., priority 2021, dated 2023)
